Columns and labels:
Test in all cases: SEC; gel filtration elution profile of wild-type and point mutants of SmTPI; conditions not shown
[1] = target: SmTPI-C221D (Schistosoma mansoni)
[2] = target: SmTPI-C221S (Schistosoma mansoni)
[3] = target: SmTPI-C221Y (Schistosoma mansoni)
[4] = target: SmTPI-C221K (Schistosoma mansoni)

Substance: SmTPI-C221D (enzyme)
- stoichiometry N [1]: 2

Substance: SmTPI-C221S (enzyme)
- stoichiometry N [2]: 2

Substance: SmTPI-C221Y (enzyme)
- stoichiometry N [3]: 2

Substance: SmTPI-C221K (enzyme)
- stoichiometry N [4]: 2

— paper PMC6980832, “Crystal structures of Triosephosphate Isomerases from Taenia solium and Schistosoma mansoni provide insights for vaccine rationale and drug design against helminth parasites” (PLoS Neglected Tropical Diseases, 2020)
